From the Human Domainome abundance scans (Beltran et al. 2025)
± gives the uncertainty stated by the source.

B1: Transcription factor SOX-11, residues 50 to 117; numbered along this chain, P35716 (parent)
chain: KRPMNAFMVWSKIERRKIMEQSPDMHNAEISKRLGKRWKMLKDSEKIPFIREAERLRLKHMADYPDYK
B2: Cell division cycle and apoptosis regulator protein 1, residues 625 to 674; numbered along this chain, Q8IX12 (parent)
chain: ISTPTHWSKLDPKTMKVNDLRKELESRALSSKGLKSQLIARLTKQLKVEE

Variants of: B1
Assay: abundance fitness (aPCA) (normalised: wild type 0, dead -1); higher = more abundant; growth selection in yeast, the domain comes from the species named
Conditions: Homo sapiens

Row | Variant | abundance fitness
1 | L56N | -0.347 ± 0.06
2 | L56P | -1.1 ± 0.22
3 | L56Q | -0.26 ± 0.18
4 | L56R | -0.532 ± 0.084
5 | L56S | -0.199 ± 0.051
6 | L56T | -0.267 ± 0.076
7 | L56V | -0.528 ± 0.063
8 | L56W | -0.888 ± 0.26
9 | L56Y | -0.386 ± 0.078
10 | R57A | 0.023 ± 0.063
11 | R57C | -0.186 ± 0.058
12 | R57D | -0.137 ± 0.073
13 | R57E | 0.283 ± 0.13
14 | R57F | -0.432 ± 0.054
15 | R57G | -0.167 ± 0.059
16 | R57H | -0.126 ± 0.067
17 | R57I | -0.384 ± 0.065
18 | R57K | 0.137 ± 0.11
19 | R57L | -0.335 ± 0.065
20 | R57M | -0.068 ± 0.13
21 | R57N | 0.414 ± 0.045
22 | R57P | -0.426 ± 0.11
23 | R57Q | -0.057 ± 0.12
24 | R57T | -0.023 ± 0.07
25 | R57V | -0.373 ± 0.066
26 | R57W | -0.114 ± 0.1

Row | Variant | abundance fitness
27 | R57Y | -0.248 ± 0.056
28 | L58C | -0.116 ± 0.055
29 | L58D | 0.188 ± 0.056
30 | L58E | -0.294 ± 0.16
31 | L58G | -0.076 ± 0.054
32 | L58H | 0.065 ± 0.06
33 | L58I | -0.087 ± 0.054
34 | L58M | -0.149 ± 0.13
35 | L58N | 0.068 ± 0.054
36 | L58P | -0.473 ± 0.12
37 | L58R | -0.118 ± 0.069
38 | L58S | -0.047 ± 0.046
39 | L58T | -0.011 ± 0.071
40 | L58V | -0.101 ± 0.052
41 | L58W | -0.222 ± 0.16
42 | L58Y | -0.195 ± 0.055
43 | K59A | 0.087 ± 0.062
44 | K59C | -0.099 ± 0.055
45 | K59D | -0.052 ± 0.061
46 | K59E | 0.084 ± 0.16
47 | K59F | -0.166 ± 0.054
48 | K59H | 0.106 ± 0.06
49 | K59I | -0.054 ± 0.054
50 | K59L | 0.12 ± 0.053
51 | K59M | 0.039 ± 0.089
52 | K59N | 0.026 ± 0.053

Row | Variant | abundance fitness
53 | K59P | -0.403 ± 0.089
54 | K59S | -0.017 ± 0.044
55 | K59T | 0.075 ± 0.069
56 | K59V | 0.012 ± 0.051
57 | K59W | -0.323 ± 0.15
58 | K59Y | -0.192 ± 0.056
59 | H60C | -0.031 ± 0.06
60 | H60D | 0.136 ± 0.062
61 | H60E | 0.406 ± 0.14
62 | H60F | -0.078 ± 0.058
63 | H60G | 0.142 ± 0.055
64 | H60I | -0.178 ± 0.066
65 | H60L | -0.273 ± 0.068
66 | H60M | -0.114 ± 0.19
67 | H60N | 0.058 ± 0.055
68 | H60P | -0.142 ± 0.079
69 | H60Q | 0.222 ± 0.12
70 | H60R | -0.227 ± 0.064
71 | H60S | -0.017 ± 0.05
72 | H60T | 0.103 ± 0.074
73 | H60V | -0.047 ± 0.061
74 | H60W | -0.607 ± 0.18
75 | H60Y | -0.03 ± 0.053
76 | M61A | 0.144 ± 0.065
77 | M61C | 0.107 ± 0.05
78 | M61D | 0.09 ± 0.059

Row | Variant | abundance fitness
79 | M61E | 0.046 ± 0.12
80 | M61F | -0.292 ± 0.06
81 | M61G | 0.07 ± 0.059
82 | M61H | -0.086 ± 0.06
83 | M61I | 0.011 ± 0.048
84 | M61K | -0.205 ± 0.18
85 | M61N | 0.116 ± 0.053
86 | M61P | 0.008 ± 0.078
87 | M61Q | 0.077 ± 0.11
88 | M61R | 0.033 ± 0.065
89 | M61S | 0.047 ± 0.048
90 | M61T | 0.058 ± 0.06
91 | M61V | 0.048 ± 0.057
92 | M61W | -0.221 ± 0.16
93 | M61Y | -0.096 ± 0.052
94 | A62C | -0.062 ± 0.047
95 | A62D | 0.092 ± 0.05
96 | A62F | -0.2 ± 0.042
97 | A62G | 0.079 ± 0.05
98 | A62H | -0.251 ± 0.059
99 | A62I | -0.182 ± 0.046
100 | A62K | -0.085 ± 0.08
101 | A62L | -0.123 ± 0.044
102 | A62M | -0.181 ± 0.082
103 | A62N | 0.111 ± 0.043
104 | A62Q | 0.146 ± 0.096

Row | Variant | abundance fitness
105 | A62R | -0.225 ± 0.053
106 | A62S | 0.116 ± 0.039
107 | A62V | -0.139 ± 0.047
108 | A62W | -0.43 ± 0.098
109 | A62Y | -0.163 ± 0.043
110 | D63N | 0.113 ± 0.26
111 | P65R | -0.495 ± 0.43
112 | P65S | 0.269 ± 0.36
113 | P65V | -0.013 ± 0.47
114 | P65Y | -0.41 ± 0.37
115 | D66A | -0.206 ± 0.14
116 | D66C | -0.278 ± 0.13
117 | D66E | 0.247 ± 0.18
118 | D66F | -0.265 ± 0.11
119 | D66G | -0.027 ± 0.12
120 | D66H | -0.115 ± 0.18
121 | D66I | -0.382 ± 0.13
122 | D66L | -0.226 ± 0.11
123 | D66P | -0.234 ± 0.28
124 | D66Q | -0.115 ± 0.29
125 | D66R | -0.38 ± 0.31
126 | D66S | -0.368 ± 0.091
127 | D66T | -0.657 ± 0.24
128 | D66V | -0.545 ± 0.18
129 | D66Y | -0.36 ± 0.087
130 | Y67A | 0.149 ± 0.14

Row | Variant | abundance fitness
131 | Y67C | -0.048 ± 0.1
132 | Y67D | 0.283 ± 0.056
133 | Y67F | -0.097 ± 0.093
134 | Y67H | 0.089 ± 0.056
135 | Y67I | -0.027 ± 0.097
136 | Y67K | -0.007 ± 0.24
137 | Y67L | 0.098 ± 0.083
138 | Y67M | 0.222 ± 0.27
139 | Y67N | 0.203 ± 0.053
140 | Y67P | 0.151 ± 0.11
141 | Y67R | -0.163 ± 0.1
142 | Y67S | 0.175 ± 0.073
143 | Y67T | -0.044 ± 0.12
144 | Y67V | -0.214 ± 0.11
145 | Y67W | 0.17 ± 0.22
146 | K68C | 0.354 ± 0.28
147 | K68L | -0.642 ± 0.4
148 | K68N | 0.163 ± 0.33
149 | K68S | -0.093 ± 0.33
150 | K68T | -0.139 ± 0.37
151 | K68Y | 0.314 ± 0.24

Variants of: B2
Assay: as above
Conditions: Homo sapiens

Row | Variant | abundance fitness
152 | T3E | -0.007 ± 0.033
153 | W7L | -0.223 ± 0.039
154 | Q37R | -0.168 ± 0.032
155 | L38T | -0.63 ± 0.047
156 | R21M | 0.036 ± 0.049
157 | S30Q | -0.148 ± 0.045
158 | A28Q | 0.151 ± 0.042
159 | K13M | 0.002 ± 0.036
160 | G33M | -1.03 ± 0.13
161 | K22I | -0.065 ± 0.047
162 | H6P | 0.044 ± 0.034
163 | K32Y | -0.138 ± 0.045
164 | L24P | -0.778 ± 0.067
165 | T14Y | -0.05 ± 0.061
166 | L10N | -0.516 ± 0.069
167 | K47R | -0.083 ± 0.029
